Experimental findings from patent publication US20170058032A1 (published 2017) are described below.

This experiment deals with T1, extracellular domain of human CD79b fused to Fc (huCD79becd-Fc) (UniProt P40259 29-159).
T1 chain: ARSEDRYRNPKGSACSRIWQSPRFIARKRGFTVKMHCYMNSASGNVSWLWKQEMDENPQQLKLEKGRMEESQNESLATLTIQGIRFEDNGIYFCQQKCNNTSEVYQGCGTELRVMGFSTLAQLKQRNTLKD
Briefly: Biacore; Fab.

B1: MA79b Fab (Fab, V domains shown)
VH: EVQLQQSGAELMKPGASVKISCKATGYTFSSYWIEWVKQRPGHGLEWIGEILPGGGDTNYNEIFKGKATFTADTSSNTAYMQLSSLTSEDSAVYYCTRRVPVYFDYWGQGTSVTVSS
VL: DIVLTQSPASLAVSLGQRATISCKASQSVDYDGDSFLNWYQQKPGQPPKLFIYAASNLESGIPARFSGSGSGTDFTLNIHPVEEEDAATYYCQQSNEDPLTFGAGTELELKR
Broadly, the Kd is a measure of binding affinity in units of concentration. A higher Kd goes with a looser complex. In turn, B1 registered a Kd of 200 nM.
